From patent publication US9187525B2, “Methods of treating ophthalmic diseases using NPR-B agonists” (Shire Orphan Therapies GmbH, dated 2015)
Numbered stars: 1 amine (or outer) side, 2 acyl side, 3 side chain; on linkers, the order of the positions; unused ones are H or OH. Square brackets hold non-standard residues; d marks the D form. Ends that are not written are not given here. * marks the point of attachment. AFL = (S)-2-((S)-3-amino-2-oxopyrrolidin-1-yl)-3-phenylpropanoic acid, O=C1[C@@H](N[*:1])CCN1[C@@H](Cc1ccccc1)C(=O)[*:2]; Tap(Ae) = (2S,4R)-4-(2-aminoethylamino)pyrrolidine-2-carboxylic acid, O=C([C@@H]1C[C@@H](NCCN[*:3])CN1[*:1])[*:2]; Pca = (2S,3R)-3-aminopyrrolidine-2-carboxylic acid, O=C([C@@H]1[C@H](N[*:3])CCN1[*:1])[*:2]; Pro(trans-4-NH2) = O=C([C@@H]1C[C@@H](N[*:3])CN1[*:1])[*:2]; Sni = (S)-nipecotic acid, O=C([C@H]1CCCN([*:1])C1)[*:2]; Gly(2-thienyl) = N[C@H](C(=O)O)c1cccs1; Hyp = O=C(O)[C@@H]1C[C@@H](O)CN1; hPhe = N[C@@H](CCc1ccccc1)C(=O)O; NMeL = CN[C@@H](CC(C)C)C(=O)O; Chg = N[C@H](C(=O)O)C1CCCCC1; BB394 = not defined here; BB785 = not defined here; Api = NC1(C(=O)O)CCNCC1; Che = not defined here; Hexanoyl = CCCCCC(=O)*; NP = not defined here; Occ = octanoic acid

T1: natriuretic peptide receptor-B (human)
T1 chain: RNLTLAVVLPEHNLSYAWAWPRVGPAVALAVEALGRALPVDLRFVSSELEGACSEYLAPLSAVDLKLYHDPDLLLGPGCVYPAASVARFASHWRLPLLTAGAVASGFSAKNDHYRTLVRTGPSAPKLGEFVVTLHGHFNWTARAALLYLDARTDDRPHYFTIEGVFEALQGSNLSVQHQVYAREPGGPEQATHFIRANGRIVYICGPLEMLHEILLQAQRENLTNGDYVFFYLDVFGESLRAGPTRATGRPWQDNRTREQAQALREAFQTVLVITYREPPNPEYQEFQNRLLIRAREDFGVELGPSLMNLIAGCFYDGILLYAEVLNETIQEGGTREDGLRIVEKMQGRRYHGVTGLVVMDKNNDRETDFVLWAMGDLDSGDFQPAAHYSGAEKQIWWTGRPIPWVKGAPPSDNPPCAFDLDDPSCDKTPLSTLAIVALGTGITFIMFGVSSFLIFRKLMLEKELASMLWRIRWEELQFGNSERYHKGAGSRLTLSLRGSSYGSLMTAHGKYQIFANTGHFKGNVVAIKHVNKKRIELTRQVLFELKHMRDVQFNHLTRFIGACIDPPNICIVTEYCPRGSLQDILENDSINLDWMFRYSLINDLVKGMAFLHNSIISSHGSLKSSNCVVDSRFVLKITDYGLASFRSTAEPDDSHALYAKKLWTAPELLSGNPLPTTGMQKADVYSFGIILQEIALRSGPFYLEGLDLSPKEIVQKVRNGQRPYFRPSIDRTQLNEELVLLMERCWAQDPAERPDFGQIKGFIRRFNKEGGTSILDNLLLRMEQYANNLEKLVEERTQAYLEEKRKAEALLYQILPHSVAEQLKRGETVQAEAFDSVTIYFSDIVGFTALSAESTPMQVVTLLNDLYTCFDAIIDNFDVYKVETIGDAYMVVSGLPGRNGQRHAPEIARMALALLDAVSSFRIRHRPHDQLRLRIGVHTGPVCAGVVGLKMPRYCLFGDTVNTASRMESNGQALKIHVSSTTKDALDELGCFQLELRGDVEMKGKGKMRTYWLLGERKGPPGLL


Molecular target: T1, natriuretic peptide receptor-B
Assay: cell-based or functional assay

Binder	EC50 group, cGMP in GTM-3 cells [µM]
[Occ][Sni]F[dL]L[Hyp][NMeL][NP][Che] (reading uncertain; also: printed as Occ-Sni-Phe-leu-Leu-Hyp-Nml-NP-Che) [JAL-1673]	≤ 15
[Occ][Sni]FLL[Tap(Ae)][NMeL]VR[Che] (not fully specified (residue 4); printed as Occ-Sni-Phe-leu-Leu-Tap(Ae)-Nml-Val-Arg-Che; reading uncertain) [JAL-1683]	≤ 15
[Occ][Sni]FLL[Pro(trans-4-NH2)][NMeL]VR[Che] (not fully specified (residue 4); printed as Occ-Sni-Phe-leu-Leu-Tap-Nml-Val-Arg-Che; reading uncertain) [JAL-1729]	≤ 1
[Occ][AFL][dL]L[Hyp][NMeL]DRI-NH2 [JAL-1671]	≤ 1
[Occ][Sni]FLL[Hyp][NMeL]D[Apc(Gly)][Che] (not fully specified (residue 4); printed as Occ-Sni-Phe-leu-Leu-Hyp-Nml-Asp-Apc(Gly)-Che; reading uncertain) [JAL-1687]	≤ 5
[Occ][Sni]FLL[Tap(Ae)][NMeL]DR[Che] (not fully specified (residue 4); printed as Occ-Sni-Phe-leu-Leu-Tap(Ae)-Nml-Asp-Arg-Che; reading uncertain) [JAL-1681]	≤ 1
[Occ][Sni]FLL[Hyp][NMeL]TR[Che] (not fully specified (residue 4); printed as Occ-Sni-Phe-leu-Leu-Hyp-Nml-Thr-Arg-Che; reading uncertain) [JAL-1753]	≤ 1
XXXFLLXXDRI (HELM PEPTIDE1{[O=C(CCc1ccccc1)[*:2]].[bAla].[O=C([C@H]1CCCN([*:1])C1)[*:2]].F.[dL].L.[Hyp].[meL].D.R.I.[am]}$$$$V2.0; SMILES CC[C@H](C)[C@H](NC(=O)[C@H](CCCNC(=N)N)NC(=O)[C@H](CC(=O)O)NC(=O)[C@H](CC(C)C)N(C)C(=O)[C@@H]1C[C@@H](O)CN1C(=O)[C@H](CC(C)C)NC(=O)[C@@H](CC(C)C)NC(=O)[C@H](Cc1ccccc1)NC(=O)[C@H]1CCCN(C(=O)CCNC(=O)CCc2ccccc2)C1)C(N)=O) [JAL-1669]	≤ 15
[Occ][Sni]FLL[Hyp][NMeL]D[BB394][Che] (not fully specified (residue 4); printed as Occ-Sni-Phe-leu-Leu-Hyp-Nml-Asp-(BB394)-Che; reading uncertain) [JAL-1694]	≤ 15
Hexanoyl-[dA][dA]FGLKLDR[Chg]-NH2 [JAL-0718]	≤ 15
[Occ][Sni][hPhe]LL[Hyp][NMeL]DRI-NH2 (not fully specified (residue 4); printed as Occ-Sni-Hfe-leu-Leu-Hyp-Nml-Asp-Arg-Ile-) [JAL-1701]	≤ 15
XXFGLKLDRI (HELM PEPTIDE1{[CCCCCC(=O)[*:2]].[O=C(c1nc(N[*:1])cs1)[*:2]].F.G.L.K.L.D.R.I.[am]}$$$$V2.0; SMILES CCCCCC(=O)Nc1csc(C(=O)N[C@@H](Cc2ccccc2)C(=O)NCC(=O)N[C@@H](CC(C)C)C(=O)N[C@@H](CCCCN)C(=O)N[C@@H](CC(C)C)C(=O)N[C@@H](CC(=O)O)C(=O)N[C@@H](CCCNC(=N)N)C(=O)N[C@H](C(N)=O)[C@@H](C)CC)n1) [JAL-0713]	≤ 15
[Occ][Sni]F[dL]L[Hyp][NMeL]DR[Che] (reading uncertain; also: printed as Occ-Sni-Phe-leu-Leu-Hyp-Nml-Asp-Arg-Che) [JAL-1680]	≤ 1

Results, then the binder that gave them:

EC50 group, cGMP in GTM-3 cells [µM]	Binder
≤ 1	[Occ][Sni]FLL[Hyp][NMeL]SR[Che] (not fully specified (residue 4); printed as Occ-Sni-Phe-leu-Leu-Hyp-Nml-Ser-Arg-Che; reading uncertain) [JAL-1752]
≤ 5	[Occ][Sni]F[dL]L[Pro(trans-4-NH2)][NMeL][Gly(2-thienyl)]P[Che] (reading uncertain; also: printed as Occ-Sni-Phe-leu-Leu-Tap-Nml-(BB726)-Pro-Che) [JAL-1676]
≤ 1	[Occ][Sni]F[dL]L[Hyp][NMeL]D[Pca][Che] (reading uncertain; also: printed as Occ-Sni-Phe-leu-Leu-Hyp-Nml-Asp-Pca-Che) [JAL-1679]
≤ 1	[Occ][Sni]FLL[Hyp][NMeL]VR[Che] (not fully specified (residue 4); printed as Occ-Sni-Phe-leu-Leu-Hyp-Nml-Val-Arg-Che; reading uncertain) [JAL-1730]
≤ 5	[Occ][Sni]FLL[Hyp][NMeL]D[BB785][Che] (not fully specified (residue 4); printed as Occ-Sni-Phe-leu-Leu-Hyp-Nml-Asp-(BB785)-Che; reading uncertain) [JAL-1697]
≤ 15	[Occ][Sni]FLL[Hyp][NMeL]NR[Che] (not fully specified (residue 4); printed as Occ-Sni-Phe-leu-Leu-Hyp-Nml-Asn-Arg-Che; reading uncertain) [JAL-1751]
≤ 1	[Occ][Sni]FLL[Pro(trans-4-NH2)][NMeL]DR[Che] (not fully specified (residue 4); printed as Occ-Sni-Phe-leu-Leu-Tap-Nml-Asp-Arg-Che; reading uncertain) [JAL-1682]
≤ 15	[Occ][Sni]FLL[Hyp][NMeL]D[Apc(Gua)][Che] (not fully specified (residue 4); printed as Occ-Sni-Phe-leu-Leu-Hyp-Nml-Asp-Apc(Gua)-Che; reading uncertain) [JAL-1685]
≤ 15	[Occ][Sni]F[dL]L[Hyp][NMeL]D[Api][Che] (reading uncertain; also: printed as Occ-Sni-Phe-leu-Leu-Hyp-Nml-Asp-Apc-Che) [JAL-1672]
